Measurements as given in the supplement of paper PMC6757056.
± gives the standard deviation of the averaged measurements.

B1: library; a variant is named by its letters at N, in order (parent)
chain: GCUGUCACCGGUGUAUUACCCUAGUGGUCGACCGGUCUGAUGAGUCUNNNNNNAGACGAAACAGC

How the values were obtained:
[1] = variants of: B1; assay: normalized RNA/DNA level with ligand (relative to sTRSVctl = 100) (log10 (% of sTRSVctl)); ligand: hypoxanthine (xanthine aptamer); higher = less ribozyme self-cleavage, higher mRNA level; settings: ligand concentration (+) RNA-Seq: 5 mM, HEK293T, reporter: mCherry (pCS4076), ligand present: yes
Procedure, shortened: (§1)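 RNA level was computed as RNA reads over DNA reads divided by a spiked-in non-cleaving sequence or by the top sequences, then scaled and log-transformed. Scaling was ×100 with log10, the top group was 25 sequences, and the threshold was ≥100 DNA reads. The reads came from HEK293T cells transfected at 4 µg per 6-well well with ribozyme switch library plasmids (mCherry, or eGFP in some ligand experiments). Total RNA was extracted with EDTA 72 h after transfection, with any ligand added 1 h before it.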

[2] = variants of: B1; assay: normalized RNA/DNA level without ligand (relative to sTRSVctl = 100) (log10 (% of sTRSVctl)); ligand: hypoxanthine (xanthine aptamer); higher = less ribozyme self-cleavage, higher mRNA level; settings: HEK293T, reporter: mCherry (pCS4076), ligand present: no
Procedure, shortened: as §1

Variant | normalized RNA/DNA level with ligand (log10) [1] | normalized RNA/DNA level without ligand (log10) [2]
UUCUCA | 1.98 ± 0.033 | 1.918 ± 0.013
AUCUCC | 1.97 ± 0.039 | 1.9 ± 0.058
GUCUCC | 1.99 ± 0.047 | 1.94 ± 0.084
UUCUCC | 1.97 ± 0.072 | 1.99 ± 0.082
AUCUCG | 1.89 ± 0.024 | 1.59 ± 0.06
AUCUCU | 1.99 ± 0.075 | 1.937 ± 0.0021
CUCUCU | 1.89 ± 0.034 | 1.904 ± 0.012
UUCUCU | 1.99 ± 0.084 | 1.89 ± 0.051
CUCUGA | 1.96 ± 0.047 | 1.944 ± 0.009
GUCUGA | 1.954 ± 0.0094 | 1.79 ± 0.03
UUCUGA | 2.03 ± 0.036 | 1.834 ± 0.0034
AUCUGC | 1.97 ± 0.04 | 1.88 ± 0.022
GUCUGC | 1.92 ± 0.038 | 1.707 ± 0.0074
UUCUGC | 1.998 ± 0.019 | 1.92 ± 0.049
CUCUGG | 1.937 ± 0.0091 | 1.75 ± 0.084
GUCUGG | 1.878 ± 0.016 | 1.48 ± 0.0028
AUCUGU | 1.91 ± 0.026 | 1.787 ± 0.014
CUCUGU | 1.963 ± 0.0084 | 1.94 ± 0.028
GUCUGU | 1.948 ± 0.018 | 1.841 ± 0.015
UUCUGU | 1.947 ± 0.0095 | 1.883 ± 0.018

Variant | normalized RNA/DNA level with ligand (log10) [1] | normalized RNA/DNA level without ligand (log10) [2]
AUCUUA | 1.916 ± 0.012 | 1.827 ± 0.011
CUCUUA | 1.895 ± 0.0051 | 1.825 ± 0.012
GUCUUA | 1.932 ± 0.0061 | 1.87 ± 0.021
UUCUUA | 1.95 ± 0.014 | 1.883 ± 0.018
AUCUUC | 2.02 ± 0.031 | 2.006 ± 0.0047
GUCUUC | 1.99 ± 0.042 | 1.9928 ± 0.0007
UUCUUC | 2.01 ± 0.062 | 2.06 ± 0.039
CUCUUG | 1.93 ± 0.045 | 1.87 ± 0.044
GUCUUG | 1.9 ± 0.086 | 1.52 ± 0.066
UUCUUG | 1.92 ± 0.068 | 1.794 ± 0.016
AUCUUU | 1.99 ± 0.024 | 1.91 ± 0.046
CUCUUU | 2 ± 0.0092 | 1.912 ± 0.014
GUCUUU | 1.946 ± 0.003 | 1.885 ± 0.0085
UUCUUU | 1.927 ± 0.013 | 1.98 ± 0.034
GUGAAA | 1.895 ± 0.016 | 1.66 ± 0.027
CUGAAC | 1.9 ± 0.066 | 1.76 ± 0.019
GUGAAC | 1.9 ± 0.024 | 1.57 ± 0.046
UUGAAC | 1.92 ± 0.052 | 1.855 ± 0.01
CUGAAU | 1.93 ± 0.062 | 1.74 ± 0.062
GUGAAU | 1.9 ± 0.024 | 1.7 ± 0.052

Variant | normalized RNA/DNA level with ligand (log10) [1] | normalized RNA/DNA level without ligand (log10) [2]
UUGAAU | 1.95 ± 0.03 | 1.8 ± 0.031
GUGACA | 1.9 ± 0.04 | 1.78 ± 0.033
AUGACC | 1.914 ± 0.019 | 1.902 ± 0.016
GUGACC | 1.931 ± 0.012 | 1.74 ± 0.019
UUGACC | 1.96 ± 0.049 | 1.987 ± 0.011
CUGACG | 1.89 ± 0.057 | 1.86 ± 0.074
AUGACU | 1.95 ± 0.024 | 1.829 ± 0.016
CUGACU | 1.99 ± 0.038 | 1.9 ± 0.072
UUGACU | 1.95 ± 0.077 | 1.9 ± 0.042
AUGAGC | 1.8938 ± 0.00087 | 1.57 ± 0.055
CUGAGC | 1.947 ± 0.0077 | 1.79 ± 0.065
AUGAGU | 1.87 ± 0.026 | 1.44 ± 0.11
CUGAGU | 1.94 ± 0.073 | 1.839 ± 0.0049
GUGAGU | 1.94 ± 0.028 | 1.639 ± 0.0057
UUGAGU | 1.92 ± 0.026 | 1.75 ± 0.026
GUGAUA | 1.89 ± 0.073 | 1.75 ± 0.027
AUGAUC | 1.98 ± 0.039 | 1.93 ± 0.022
CUGAUC | 1.98 ± 0.035 | 1.949 ± 0.019
